Source: the supplement of paper PMC12042874
± gives the uncertainty stated by the source.

assay: amyloid nucleation score (Sup35N fusion, yeast selection) (log enrichment); library NNK2; higher = more nucleation; inactive = no reads after selection
Procedure, shortened: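 Output and input plasmid inserts were sequenced by Illumina after psi-negative yeast carrying Sup35N fused to peptides of 20 random codons had been induced 24 hours with 100 μM copper sulfate and grown 7 days at 30°C on medium lacking adenine and uracil. The nucleation score is the DiMSum log enrichment of output over input reads, centred on the mode score of non-aggregating sequences. Sequences with under 100 input reads were excluded.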

Substance | amyloid nucleation score
NSESYRCERY | -0.567 ± 0.49
NSIYLCLSAGRFDSMKVNSE | 4.22 ± 0.076
NSKVFS | 0.011 ± 1.1
NSLCLLNRQ | 0.241 ± 0.54
NSLLNFWEVTLLRGGTHMVF | -0.675 ± 0.29
NSLNI | -0.127 ± 1.1
NSLNSMVYYEYFYFLVYVCG | -0.015 ± 0.49
NSNSCAHLTKTRYKSTVRYT | 2.1 ± 0.23
NSQGYFMFIKVDHS | -1.39 ± 1.1
NSQTYTGCAVGYVLVNVMGL | 6.474 ± 0.033
NSVAIVQIVGASAWRGNLL | 5.128 ± 0.046
NSVDSRWGDQLARICIHGMT | 0.141 ± 0.42
NSVFRTDCGKRGMVVPGRAH | 1.04 ± 0.35
NSVWANARRLTVCGAERGGT | 1.24 ± 0.17
NTAFADVDAF | -0.645 ± 0.55
NTALSGDCVRCPSAYEWVKV | 3.25 ± 0.11
NTFDVVMT | 0.411 ± 0.51
NTLNVWACVGLLLQ | 6.48 ± 0.075
NTRASSKGIDMGYCQYH | 0.066 ± 0.49
NTWDMLYGIWFSSLLQALLN | inactive
NTWEWLLPEMSNLLSWFSEW | 0.014 ± 0.27
NVDQEMDYDYERIGFLPIGT | -0.204 ± 0.33

Substance | amyloid nucleation score
NVDRFKVINLS | inactive
NVFVLFVHRVVGQELAELLG | 4.58 ± 0.065
NVHYLGLVCRCALVFGTNML | inactive
NVIGENLGGLLNIFDTNVSF | inactive
NVIVFRMGCRILNWGAQYGR | 6.44 ± 0.082
NVKNKKSVSLPYSKLMRGRE | -0.17 ± 0.65
NVLNGISKLMRHFALKYASM | 0.528 ± 0.4
NVLWIDLSRVKVVDGNRSPE | 6.342 ± 0.061
NVNGLLSTN | -0.172 ± 0.76
NVRFY | inactive
NVSIMFRFFVYLC | 4.16 ± 0.066
NVSVNAEVN | -0.955 ± 0.54
NVTVAWFVNLSPWF | 7.288 ± 0.045
NVVSLILVVLRASCTYLYNG | inactive
NVVTG | -0.11 ± 0.42
NVYLTQSWSFHNLHRFYYST | 2.57 ± 0.083
NWCYTTSGHHRVTFGLQRLP | 4.8 ± 0.052
NWGSRNFCW | -1.26 ± 1.1
NWLLN | -0.492 ± 0.76
NWPGCVHNTVISDLGRVHCM | -0.853 ± 0.56
NYFLY | 7.28 ± 0.086
NYHPFLVF | -0.909 ± 0.54

Substance | amyloid nucleation score
NYIRYLRVYYIVGDELRPGN | 8.026 ± 0.048
NYLASGQIIWLGYPSRSLSL | inactive
NYWGVARKFEFSDECLFLDG | 0.596 ± 0.54
NYYGSVTRHFLSFLF | inactive
PADSTMGK | -0.856 ± 0.29
PALPTVNLNS | -0.475 ± 0.42
PARLTNCGDPSY | -0.997 ± 0.3
PAWAHVSLRLMLFYWGYLFY | inactive
PCGSCPRLQQIVSRDGDDAG | 2.71 ± 0.21
PCVSMSVYILQLGPLGAWSR | 7.454 ± 0.054
PCYGYQR | -0.024 ± 0.65
PDNLCMKPFLIAGYYVPTTA | -1.55 ± 0.61
PDSRPIVRRSANCIWSNSWF | 1.38 ± 0.1
PDSYGNFHHSSYNHDHNLVH | inactive
PDVMLCIFYIDFMQGFFDLY | 5.08 ± 0.07
PECVLVSFLRRAFELFAMCN | inactive
PEHYSGATRLVH | 0.42 ± 0.47
PESYVGRSLSPTVLVMWKSD | 0.102 ± 1.1
PFDTTCLYRYYSNFYPS | 1.73 ± 0.19
PFGGSFVSAYSTKRLCHGSH | -1.2 ± 0.48
PFMCRLIYSELNDYIIELDE | -0.081 ± 0.5
PFNQDMLTIQIGTSIISRSS | -0.172 ± 1.1

Substance | amyloid nucleation score
PFVGSSGTWP | 1.5 ± 0.12
PGEGMSQEERLMLCRCVWVT | 0.874 ± 0.52
PGIVRGPYYGNMVIFLLKMF | 2.89 ± 0.19
PGSRRL | 0.011 ± 0.41
PHAHRNANLVWHQGKAPKGG | 1.12 ± 0.53
PHHMIDAGASPSLN | -1.52 ± 0.62
PHLFRPGTADVLYHYMTMRK | 0.628 ± 0.37
PICESWHFSLIVLMLFLNWE | inactive
PIDFVLCSNNSSSWPVHKQN | 2.36 ± 0.11
PIGLGVCLVICLKNEVSRCW | 3.37 ± 0.063
PIKVDEVCGCRRRWFGDWDS | -0.146 ± 1
PINVRNYKRVCGGMVV | inactive
PISLRGLYCVKDLMDKPM | 0.113 ± 0.61
PISNLHILGFHHLTQHDRTV | 1.05 ± 0.3
PITVYWCCDNS | 3.84 ± 0.087
PKFLSFADSAFLICCRAIVF | 6 ± 0.08
PKIKHMMAWVMFVAFKVCSC | -0.063 ± 0.29
PKKSVGKLNIILEVLPSTAV | -0.666 ± 0.53
PLCHLLYRSLMFFTLSEVSC | 0.042 ± 0.8
